# Results reported in article PMC4844422, “Activity Regulation by Heteromerization of Arabidopsis Allene Oxide Cyclase Family Members” (Plants, 2016).
# B1: Arabidopsis allene oxide cyclase 2 (AOC2), recombinant, with N-terminal His-tag (enzyme, Arabidopsis thaliana, UniProt Q9LS02 78-253, looked up)
# chain: PSKVQELSVYEINELDRHSPKILKNAFSLMFGLGDLVPFTNKLYTGDLKKRVGITAGLCVVIEHVPEKKGERFEATYSFYFGDYGHLSVQGPYLTYEDSFLAITGGAGIFEGAYGQVKLQQLVYPTKLFYTFYLKGLANDLPLELTGTPVPPSKDIEPAPEAKALEPSGVISNYTN
# notes: also called AtAOC2; hAOC2; source: E. coli M15 (pQE30), purified (Ni-NTA-agarose); not shown: His-tag, N-terminal, kept
# B2: Arabidopsis allene oxide cyclase 2 (AOC2), recombinant, with C-terminal His-tag (enzyme, Arabidopsis thaliana, UniProt Q9LS02 78-253, looked up)
# chain: B1 chain
# notes: also called AtAOC2; source: E. coli M15 (pQE60), purified (Ni-NTA-agarose); not shown: His-tag, C-terminal, kept
# Biological target: the molecule itself
# Experiment: SDS-PAGE after mild SDS treatment (SDS-stable oligomer); purified His-tagged protein treated with 1% SDS for 5 min at room temperature or 42 °C, 12% SDS-PAGE, anti-His-tag immunoblot; trimer at about 65 kDa, monomer 26 kDa
row,Protein,stoichiometry N
1,B1,3
2,B2,3
